Data as given in publication PMC12460815.
Values joined by “and” are separate entries in the source; they are usually repeats but may differ in a detail not shown here. Identical values can stand only once.

Tests used:
[1] = molecular target: recombinant wild-type FGF2 (UniProt P09038); assay: gel electrophoresis under non-denaturing conditions; recombinant FGF2 under non-denaturing conditions, compared with denaturation at 95 °C
[2] = molecular target: recombinant Ser 255 mutation FGF2 (UniProt P09038); assay: as above

Row | Substance | stoichiometry N [1] | stoichiometry N [2]
1 | recombinant wild-type FGF2 (from UniProt P09038 1-288) (natural protein) | 2 and 4 | 
2 | recombinant Ser 255 mutation FGF2 (from UniProt P09038 1-288) (natural protein) |  | 2 and 4
